Measured values published in paper PMC9527255, “Structure of the TnsB transposase-DNA complex of type V-K CRISPR-associated transposon”.
Each block holds one molecule with its values, some of them ahead of it.

Experiments:
[1] = target: Scytonema hofmannii TnsB transposase (type V-K CRISPR-associated transposon) (Scytonema hofmannii (UTEX 2349)); experiment: cryo-EM structure; 40 uM shTnsB with 10 uM STC DNA in 50 mM HEPES pH 7.5, 300 mM NaCl, 5 mM MgCl2, 1 mM TCEP, 30 min at 37 C; post-catalytic strand-transfer complex, 2.46 A
[2] = target: Scytonema hofmannii TnsB transposase (type V-K CRISPR-associated transposon) (Scytonema hofmannii (UTEX 2349)); experiment: SEC-MALS; shTnsB mixed with the reconstituted strand-transfer complex (STC) DNA; the high MW peak at 358.7 kDa holds the STC DNA and shTnsB
shTnsB [3] = target: T1, shTnsB (Scytonema hofmannii UTEX 2349, UniProt PDB:8AA5_1 1-596); experiment: EMSA; 5 mM MgCl2; four bands, three sites expected; 50 mM HEPES pH 7.5, 300 mM NaCl, 5 mM MgCl2, 1 mM TCEP, 37 °C, 30 min; 6% DNA retardation gel; details: protein: recombinant; tags: C-terminal His6 (TEV treatment, tag removed); chain copies: 4; blunt
T1 sequence: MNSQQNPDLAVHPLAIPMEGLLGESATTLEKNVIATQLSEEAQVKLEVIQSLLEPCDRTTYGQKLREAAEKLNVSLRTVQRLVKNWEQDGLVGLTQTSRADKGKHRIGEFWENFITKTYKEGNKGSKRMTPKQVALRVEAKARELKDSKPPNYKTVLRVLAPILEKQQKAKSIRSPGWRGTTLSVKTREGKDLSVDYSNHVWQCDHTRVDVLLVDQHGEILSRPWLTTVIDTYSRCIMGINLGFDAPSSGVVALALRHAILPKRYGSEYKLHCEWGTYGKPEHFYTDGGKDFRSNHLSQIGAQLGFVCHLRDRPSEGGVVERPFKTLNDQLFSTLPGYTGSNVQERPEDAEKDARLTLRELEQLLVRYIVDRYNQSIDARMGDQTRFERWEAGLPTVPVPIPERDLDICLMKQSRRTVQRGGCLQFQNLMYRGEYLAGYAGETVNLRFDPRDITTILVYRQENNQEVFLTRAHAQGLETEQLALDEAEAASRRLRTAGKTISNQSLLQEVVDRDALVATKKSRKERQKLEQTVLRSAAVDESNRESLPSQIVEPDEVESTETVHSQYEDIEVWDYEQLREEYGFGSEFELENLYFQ

shTnsB [4] = target: T1, shTnsB; experiment: cryo-EM structure (2.4 Å); 5 mM MgCl2; TnsB tetramer; 50 mM HEPES pH 7.5, 300 mM NaCl, 5 mM MgCl2, 1 mM TCEP, 37 °C, 30 min; 6% DNA retardation gel; details: protein: recombinant; tags: C-terminal His6 (TEV treatment, tag removed); chain copies: 4; six strands: 1:2 1:3 (RE arm), 4:5 4:6 (LE arm); the arms pair through the 5 nt target between the insertion sites (1:4); 5' polyA overhangs on strands 2 and 5

stoichiometry N [1]: 4 | stoichiometry N [2]: 4
Molecule: Scytonema hofmannii TnsB transposase (type V-K CRISPR-associated transposon) (enzyme)

B1: LE (dsDNA)
DNA 1: ATTATATTGATGACATTTAATTTGTCATCAATTAATTAAGCAACGCTGATGGGTCACGACGACAATTAAATAGTCACAATGACATTAATCTGTCACCGACGACAGATAATTTGTCACTGTACACTACGCCTTTTGTGG
DNA 2: CCACAAAAGGCGTAGTGTACAGTGACAAATTATCTGTCGTCGGTGACAGATTAATGTCATTGTGACTATTTAATTGTCGTCGTGACCCATCAGCGTTGCTTAATTAATTGATGACAAATTAAATGTCATCAATATAAT
binding result (shTnsB [3]): binds

B2: STC DNA (RE_Target, RE_polyA, Target_1, LE_Target, LE_polyA, Target_2) (structured_DNA)
DNA 1: ATAAGGATTTTACTGATGACAATAATTTGTCACAACGACATATAATTAGTCACTGTACACGTAGAGACGTAGCAATGCT
DNA 2: AAAAAAAAAAAAAAATGTACAGTGACTAATTATATGTCGTTGTGACAAATTATTGTCATCAGTAAAATCCTTAT
DNA 3: AGCATTGCTACGTCT
DNA 4: AATTAAATAGTCACAATGACATTAATCTGTCACCGACGACAGATAATTTGTCACTGTACACTACGCCTTTTGTGGAGATG
DNA 5: AAAAAAAAAAAAAAATGTACAGTGACAAATTATCTGTCGTCGGTGACAGATTAATGTCATTGTGACTATTTAATT
DNA 6: CATCTCCACAAAAGG
binding result (shTnsB [4]): binds
